Experimental data from the RNAGym collection of RNA variant scans (doi:10.7554/elife.80360).

B1: Twister Ribozyme (parent)
chain: AACACUGCCAAUGCCGGUCCCAAGCCCGGAUAAAAGUGGAGGGGGCGG

Variants of: B1
Test: self-cleavage, relative activity (ratio to wild type); higher = more cleavage; co-transcriptional

Variant	self-cleavage
AACACUGCAAACGCCGGUCCCAAGCCCGGAUAAAAGUGGAGGGGGCGG [C9A U12C]	0.795
AACACUGUCAAUGCCGGUCCCAAGCCCGGAUAAAAGUGGAGGGGUCGG [C8U G45U]	0.313
AACACUGCAAAUGCCGGUCCCAAGCCCGGAUAAAACUGGAGGGGGCGG [C9A G36C]	0.107
AACACUGCAAAUGCCGGUCCCAAACCCGGAUAAAAGUGGAGGGGGCGG [C9A G24A]	0.0968
AACACUGCAAAUGCCGGUCCCAAUCCCGGAUAAAAGUGGAGGGGGCGG [C9A G24U]	0.111
AACACUGUCAAAGCCGGUCCCAAGCCCGGAUAAAAGUGGAGGGGGCGG [C8U U12A]	0.825
AACACUGUCAACGCCGGUCCCAAGCCCGGAUAAAAGUGGAGGGGGCGG [C8U U12C]	0.753
AACACUGCAAAUGACGGUCCCAAGCCCGGAUAAAAGUGGAGGGGGCGG [C9A C14A]	0.61
AACACUGCAAAUGUCGGUCCCAAGCCCGGAUAAAAGUGGAGGGGGCGG [C9A C14U]	0.697
AACACUGCAAAUGCCGGUCCCAAGCCCGGAUAAAAGCGGAGGGGGCGG [C9A U37C]	0.16
AACACUGCGAAUGCCGGUCCCGAGCCCGGAUAAAAGUGGAGGGGGCGG [C9G A22G]	0.0988
AACACUGCGAAUGCCGGUCCCUAGCCCGGAUAAAAGUGGAGGGGGCGG [C9G A22U]	0.187
AACACUGCGAAUGCCGGUCCCCAGCCCGGAUAAAAGUGGAGGGGGCGG [C9G A22C]	0.708
AACACUGUCAAUGCCGGACCCAAGCCCGGAUAAAAGUGGAGGGGGCGG [C8U U18A]	0.0657
AACACUGUCAAUGCCGGUCCCAAGCCCGGAUAAAAGUGGAGGUGGCGG [C8U G43U]	0.131
AACACUGCGAAUGACGGUCCCAAGCCCGGAUAAAAGUGGAGGGGGCGG [C9G C14A]	0.536
AACACUGCGAAUGUCGGUCCCAAGCCCGGAUAAAAGUGGAGGGGGCGG [C9G C14U]	0.624
AACACUGCGAAUGCCGGUCCCAAGCCCGGAUAAUAGUGGAGGGGGCGG [C9G A34U]	0.47
AACACUGCGAAUGCCGGUCCCAAGCCCGGAUAAAUGUGGAGGGGGCGG [C9G A35U]	0.695
AACACUGCGAAUGCCGGUCCCAAGCCCGGAUAAAGGUGGAGGGGGCGG [C9G A35G]	0.591
AACACUGCAAAUGCCGGUCCCAAGCCCGGAUCAAAGUGGAGGGGGCGG [C9A A32C]	0.665
AACACUGCAAAUGCCGGUCCCAAGCCCGGAUGAAAGUGGAGGGGGCGG [C9A A32G]	0.729
AACACUGCAAAUGCCGGUCCCAAGCCCGGAUAAACGUGGAGGGGGCGG [C9A A35C]	0.66
AACACUGCAAAUGCCGGUCCCAAGCCCGGAUAAAGGUGGAGGGGGCGG [C9A A35G]	0.548
AACACUGCAAAUGCCGGUCCCAAGCCCGGAUAAAUGUGGAGGGGGCGG [C9A A35U]	0.628
AACACUGCAAAUGCCGGUCCCAAGCCCGGAUAAAAGUGGAGCGGGCGG [C9A G42C]	0.288
AACACUGCGAAUGCCGGUCCCAAGCCCGGAUUAAAGUGGAGGGGGCGG [C9G A32U]	0.517

Variant	self-cleavage
AACACUGCAAAUGCCGGUCCCAAGCCCGGAAAAAAGUGGAGGGGGCGG [C9A U31A]	0.72
AACACUGUCAAUGCCGGUCCCAAGCCCGGAUAAAAGUGGAGGGGGCGC [C8U G48C]	0.652
AACACUGUCAAUGCCGGUCCCAAGCCCGGAUAAAAGUGGAGGGGGCGA [C8U G48A]	0.45
AACACUGCAAAUGCCGGUCCCAAGCCCGGAUAAAAGUGGAGGGGGCGG [C9A]	0.776
AACACUGCGAAUGCCGGUCCCAAGCCCGGAUAAAAGUGGAGGGGGCGG [C9G]	0.733
AACACUGCGAAUGCCGGUCCGAAGCCCGGAUAAAAGUGGAGGGGGCGG [C9G C21G]	0.115
AACACUGCGAAUGCCGGUCCUAAGCCCGGAUAAAAGUGGAGGGGGCGG [C9G C21U]	0.0793
AACACUGCAAAUGCCGGUCCCAAGCCCUGAUAAAAGUGGAGGGGGCGG [C9A G28U]	0.53
AACACUGCAAAUGCCGGUCCCAAGCCCCGAUAAAAGUGGAGGGGGCGG [C9A G28C]	0.636
AACACUGCAAAUGCCGGUCCCAAGCCCAGAUAAAAGUGGAGGGGGCGG [C9A G28A]	0.598
AACACUGCAAAUGCCGGUCCCAAGCCCGGAUAAAAGUGGAGGGGGAGG [C9A C46A]	0.426
AACACUGCAAAUGCCGGUCCCAAGCCCGGAUAAAAGUGGAGGGGGUGG [C9A C46U]	0.758
AACACUGCAAAUGCCGGUCCCAAGCCCGGAUAAAAGUGUAGGGGGCGG [C9A G39U]	0.131
AACACUGCAAAUGCCGGUCCCAAGCCCGGAUAAAAGUGAAGGGGGCGG [C9A G39A]	0.167
AACACUGUCAAUGCCGGUCCCAAGCCCGGAUAAAAGAGGAGGGGGCGG [C8U U37A]	0.307
AACACUGUCAAUGCCGGUCCCAAGCCCGGAUAAAAGCGGAGGGGGCGG [C8U U37C]	0.284
AACACUGCAAAUGCCGGUCCCAAGCCCGGAUAAAAGUGGAGGGGCCGG [C9A G45C]	0.131
AACACUGCAAAUGCCGGUCCCAAGCCCGGAUAAAAGUGGAGGGGACGG [C9A G45A]	0.41
AACACUGCAAAUGCCGGUCCCAAGCCCGGAUAAAAGUGGAGGGGGCGU [C9A G48U]	0.451
AACACUGCAAAUGCCGGUCCCAAGCCCGGAUAAAAGUGGAGGGGGCGC [C9A G48C]	0.541
AACACUGCAAAUGCCGGUCCCAAGCCCGGAUAAAAGUGGAGGGGGCGA [C9A G48A]	0.357
AACACUGCAAAUGCCGGUCGCAAGCCCGGAUAAAAGUGGAGGGGGCGG [C9A C20G]	0.0801
AACACUGCAAAUGCCGGUCCCAAGCCCGGAUAAAAGUGGAAGGGGCGG [C9A G41A]	0.145
AACACUGCAAAUGCCGGUCCCAAGCCCGGAUAAAAGUGGACGGGGCGG [C9A G41C]	0.123
AACACUGCGAAUGCCGGUCCCAAGCCCGGUUAAAAGUGGAGGGGGCGG [C9G A30U]	0.62
AACACUGCGAAUGCCGGUCCCAAGCCCGGCUAAAAGUGGAGGGGGCGG [C9G A30C]	0.649
AACACUGCAAAUGCCGGUCCCAAGCCAGGAUAAAAGUGGAGGGGGCGG [C9A C27A]	0.103
